What was measured:
Type in all cases: cell-based, rat
PKCα and PKCλ = assay: Immunoblot of PKCα/PKCλ abundance and distribution in cardiomyocytes; conditions: 24 hr stimulation
Method: rPMT selectively activates nPKC isoforms. Cardiomyocyte cultures were incubated in culture medium without or with NE (10 μM), rPMT (400 ng/ml) or PMA (100 nM) for 24 hr (Panels A and C) or 5 min (Panel B). Soluble extracts were prepared and separated by SDS-PAGE followed by immunodetection of total PKC isoform abundance with antibodies that are specific for the individual PKC isoforms (Panel A), or phosphorylated forms of PKC (largely PKCε) with a pan-phospho-PKC antibody (Panels B and C), as described in Methods below. GF109203 was included at 5 μM 30 min prior to stimulation as indicated.
Cells were maintained in culture in the presence of 10% FCS for 96 hr and then switched to serum-free medium for 24 hr prior to the addition of agonists as indicated. For PKC, extracts were prepared and subjected to SDS-PAGE to resolve individual isoforms according to methods described previously (14).
Specific immunoreactivity for individual PKC isoforms was quantified according to methods described previously. […] Bands were detected by enhanced chemiluminescence and blots were quantified by laser scanning densitometry.

p38-MAPK = assay: Phospho-p38 MAP kinase Western blot in cardiomyocytes
Method: (§1) rPMT promotes the activation of ERK1/2, JNK and p38-MAPK cascades. Incubations were for 24 hr in the presence of the indicated concentrations of rPMT. PMA (100 nM, 5 min) and sorbitol ([…], 5 min) were included as positive controls. Cell lysates were subjected to SDS-PAGE followed by Western blotting as described in Methods below. Phosphorylated forms of ERK1/2 (A), p38 MAP kinase (B) or JNK (C) were detected by specific anti-phospho-ERK1/2, -p38 MAP kinase or -JNK antibodies, respectively. Blots were stripped and subjected to immunoblot analysis with total ERK1/2 or p38 MAP kinase to normalize for minor variations in protein loading (Panels A and B). Top: representative autoradiograms (with each lane from a single gel exposed for the same duration). Bottom: quantification of each series of experiments (n=3).
(§2) Specific immunoreactivity for individual PKC isoforms was quantified according to methods described previously. For assays of MAPKs and AKT, cells were exposed to test agents as indicated in individual experimental protocols, washed three times with ice-cold calcium/magnesium-free Dulbecco's PBS (pH 7.1), scraped into ice-cold extraction buffer [20 mM β-glycerophosphate pH 7.5, 20 mM sodium fluoride, 2 mM EDTA, 0.2 mM sodium vanadate, 10 μg/ml aprotinin, 25 μg/ml leupeptin, 50 μg/ml PMSF, and 0.3% (v/v) β-mercaptoethanol], lysed by sonication, and centrifuged at 10,000 g for 10 min at 4° C. The supernatant was diluted in SDS-PAGE sample buffer, boiled for 5 min, and stored at −70° C. Western blot analysis was performed with antibodies that are selective for the phosphorylated (activated) forms of ERK1/2, p38-MAPK, JNK, AKT, and pan-PKC according to manufacturer's instructions. For each panel in each Figure, the results are from a single gel exposed for a uniform duration. Bands were detected by enhanced chemiluminescence and blots were quantified by laser scanning densitometry.

JNK = assay: Phospho-JNK Western blot in cardiomyocytes
Method: as §1, §2

cardiomyocytes [1] = assay: Protein synthesis ([3H]phenylalanine incorporation) in cardiomyocytes; conditions: rPMT 400 ng/ml or NE 10 μM, 48 hr, serum-free
Method: rPMT mimics the effect of norepinephrine to promote cardiomyocyte hypertrophy. Cardiomyocytes were cultured in serum-free medium without or with rPMT (400 ng/ml) or norepinephrine (NE, 10 μM) for 48 hr. Cardiomyocytes were fixed, permeabilized, and stained with monoclonal anti-α-actinin sarcomeric (Panel A, magnification×100) or subjected to Northern blot analysis for measurements of steady-state ANF mRNA expression (Panel B). Effects of rPMT (black bars) and NE (gray bars) vs. vehicle (white bars) on sarcomeric organization (Panel C), cell size (Panel D), and protein synthesis (Panel E) are illustrated (n=3 for each).
As a second index of cardiomyocyte growth, relative rates of protein synthesis were measured as radiolabeled phenylalanine incorporation into cell protein. Cells were stimulated in serum-free medium with agonists (or vehicle as control) for 48 hr at 37° C. The medium was replaced with serum-free medium containing [^3H]phenylalanine (0.1 μCi/ml) and non-radioactive phenylalanine (0.3 mM, to minimize variations in the specific activity of the precursor pool responsible for protein synthesis) during the final 24 hr of stimulation. Cells were rinsed with PBS and incubated in 10% trichloroacetic acid for 30 min on ice. […] Aliquots of the SDS-soluble protein were counted in 5 ml of scintillant.

AKT = assay: Phospho-AKT and total AKT Western blot in cardiomyocytes
Method: rPMT decreases basal AKT phosphorylation and prevents its phosphorylation by EGF. Neonatal rat cardiomyocytes were treated with rPMT (400 ng/ml) for 24 hr (Panel A), 48 hr (Panel B) or with EGF (50 ng/ml) for 5 min. Cell lysates were subjected to SDS-PAGE followed by Western blotting with antibodies that recognize the phosphorylated form or total AKT. Data are from representative gels, with similar results obtained in 3 separate experiments.
Panel A: Cells were treated with norepinephrine (NE, 10 μM) or PMA (100 nM) for 5 min without or with GF109203 (5 μM).
Panel B: Cells were treated with rPMT (400 ng/ml), NE (10 μM) or PMA (100 nM) for 24 hr without or with Go6983 (5 μM). […] Cell lysates were subjected to SDS-PAGE followed by Western blotting using a specific anti-phospho-AKT antibody. Data are from representative gels, with similar results obtained in 3 separate culture preparations.
as §2

cardiomyocytes [2] = assay: TUNEL assay of apoptosis in cardiomyocyte cultures
Method: rPMT increases H2O2-induced apoptosis in cardiomyocyte cultures. Cells were treated without or with rPMT (400 ng/ml) for 24 hr followed by H202 (500 μM) for 24 hr. The percentage of cells undergoing apoptosis was measured by TUNEL assay as described in Methods below. Data are from a single experiment and are representative of results obtained on 3 separate culture preparations.
TUNEL staining was performed for detection of apoptotic cells according to manufacturer's instructions (Boehringer). Approximately 500 cardiomyocytes were imaged by fluorescence microscopy and the number of cells that scored TUNEL-positive is presented as a percentage of total.

[3] = 24 hr, indicated concentrations
[4] = increased progressively for 24 hr
[5] = rPMT 24 hr, sorbitol 5 min positive control

B1: rPMT: recombinant Pasteurella multocida toxin, a Gαq agonist used as pharmacological probe (protein, UniProt P17452 1-1285, looked up)
Dermonecrotic toxin: MKTKHFFNSDFTVKGKSADEIFRRLCTDHPDKQLNNVKWKEVFINRFGQMMLDTPNPRKIVEKIINEGLEKQGLKNIDPETTYFNIFSSSDSSDGNVFHYNSLSESYRVTDACLMNIFVERYFDDWDLLNSLASNGIYSVGKEGAYYPDHDYGPEYNPVWGPNEQIYHSRVIADILYARSVWDEFKKYFMEYWQKYAQLYTEMLSDTFLAMAIQQYTRQTLTDEGFLMVCNTYYGNKEEVQITLLDIYGYPSTDIICIEQKGLPTPKVILYIPGGTQPFVEFLNTDDLKQWIAWHLKDNKHMVAFRKHFSLKQRQEGETFTGIDKALQYIAEESPEWPANKYILYNPTHLETENLFNIMMKRTEQRMLEDSDVQIRSNSEATRDYALSLLETFISQLSAIDMLVPAVGIPINFALSATALGLSSDIVVNGDSYEKRKYGIGSLVQSALFTGINLIPVISETAEILSSFSRTEEDIPAFFTEEQALAQRFEIVEEELHSISPDDPPREITDENLHKIRLVRLNNENQPLVVLRRLGGNKFIRIEPITFQEIKGSLVSEVINPVTNKTYYVSNAKLLGGSPYSPFRIGLEGVWTPEVLKARASVIGKPIGESYKRILAKLQRIHNSNILDERQGLMHELMELIDLYEESQPSSERLNAFRELRTQLEKALYLPEMEALKKQILQIPNKGSGAARFLLRTAMNEMAGKTSESTADLIRFALQDTVISAPFRGYAGAIPEAIDFPVKYVIEDISVFDKIQTNYWELPAYESWNEGSNSALLPGLLRESQSKGMLSKCRIIENSLYIGHSYEEMFYSISPYSNQVGGPYELYPFTFFSMLQEVQGDLGFEQAFATRNFFNTLVSDRLSLMENTMLLTESFDYTPWDAIYGDINYDEQFAAMSINERIEKCMNTYRGVAFQNSSKSIDFFLNNLTTFIDNGLTEIAISDLPYDIVQQEISQFLQGSNEWKTLDAMLFNLDKGDINGAFRKLLQSAKDNNIKFRAIGHSDNSVPPFNNPYKSLYYKGNIIAEAIEKLDREGQKFVVFADSSLLNSTPGTGRPMPGLVQYLKIPATVVDSDGAWQFLPDVASSRVPIEVTELENWQVLTPPQGKILGLKQFKLTAGFPTEQSRLPLLENSVSEDLREELMQKIDAIKNDVKMNSLVCMEAGSCDSVSPKVAARLKDMGLEAGMGASITWWRREGGMEFSHQMHTTASFKFAGKEFAVDASHLQFVHDQLDTTILILPVDDWALEIAQRNRAINPFVEYVSKTGNMLALFMPPLFTKPRLTRAL
abundance and subcellular distribution of PKCα and PKCλ (PKCα and PKCλ): is not altered
expression of total p38-MAPK protein (p38-MAPK): does not significantly alter
signaling through the p38-MAPK cascade (phosphorylation of terminal kinase) (p38-MAPK; [3]): dose-dependent increases
time at which p38-MAPK activation is detectable (p38-MAPK; [4]): 1 h
magnitude of p38-MAPK activation (p38-MAPK; [5]): more modest
expression of total JNK protein (JNK): does not significantly alter
signaling through the JNK cascade (phosphorylation of terminal kinase) (JNK; [3]): dose-dependent increases
time at which JNK activation is detectable (JNK; [4]): 1 h
magnitude of JNK activation (JNK; [5]): more modest
[3H]phenylalanine incorporation (protein synthesis) (cardiomyocytes [1]): enhance [^3H]phenylalanine incorporation
total AKT immunoreactivity, treated vs control cultures (AKT): similar
basal AKT phosphorylation after 24 hr treatment (AKT; 24 hr, relative to control cultures): reduced basal AKT phosphorylation
effect on AKT activation by EGF (AKT; rPMT-treated cultures): blunted
effect on H2O2-induced apoptosis (cardiomyocytes [2]; rPMT 400 ng/ml 24 hr followed by H2O2 500 μM 24 hr): augmented
number of TUNEL-positive cells (cardiomyocytes [2]; serum-free conditions for 48 hr): small increase

Source: US20030134774A1, “Methods for inhibiting cardiac disorders” (priority 2001, published 2003)
